Substitutions are numbered along the chain they refer to. Names may count otherwise. Each block holds one binder with its values, some of them ahead of it. Starred links: 1 amine or outer side, 2 acyl side, 3 side chain; linkers in the order of their positions; H or OH if unused. Positions of bridges follow the written chain, without caps; N, C: chain ends. Non-standard residues stand in square brackets, D forms with d. No end group written: not given here. *: point of attachment. Nip(3R) = O=C([C@@H]1CCCN([*:1])C1)[*:2]; S5 = C=CCCC[C@](C)(N)C(=O)O; Acryloyl = C=CC(=O)*
Tests used:
BFL-1ΔC C4S/C19S [1] = target: T1, BFL-1ΔC C4S/C19S (human, UniProt Q16548 1-153); assay: covalent conjugation, 10:1 peptide:protein, reducing and denaturing gel, Coomassie
T1 construct: range 1-153; Recombinant, E. coli; made by site-directed mutagenesis; also called His-BFL-1ΔC C4S/C19S; C55-only BFL-1; not shown: N-terminal His tag from the pET19b vector
T1 sequence (looked up): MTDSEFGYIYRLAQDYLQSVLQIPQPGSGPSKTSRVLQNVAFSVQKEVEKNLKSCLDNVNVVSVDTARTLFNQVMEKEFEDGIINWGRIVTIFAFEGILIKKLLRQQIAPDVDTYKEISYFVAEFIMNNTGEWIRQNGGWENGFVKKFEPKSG
Description: Processing for gel electrophoresis and Coomassie staining was performed as above.

HA-BFL-1ΔC C4S/C19S = target: T2, HA-BFL-1ΔC C4S/C19S (human, UniProt Q16548 1-153); assay: crosslinking in lysates of transfected 293T cells, anti-HA and biotin western analysis
T2 construct: range 1-153; tested in lysates and in intact cells; also called expressed BFL-1; not shown: HA tag
T2 sequence (looked up): T1 sequence (looked up)
Description: For lysate experiments, cells were trypsinized 24 hours post-transfection, washed with PBS, and lysed by incubation with 1% CHAPS lysis buffer (150 mM NaCl, 50 mM Tris pH 7.4, 100 mM DTT). Protein concentration of the soluble fraction was measured using a BCA kit according to manufacturer's instructions (Thermo Scientific). […] Samples were then boiled in LDS buffer and subjected to western analysis using 1:1000 dilutions of HA (Sigma-Aldrich, #12CA5) and biotin (Abcam, #53494) antibodies. […] After 24 h, cells were trypsinized, washed with PBS, lysed in 1% CHAPS buffer, and the supernatant collected for protein concentration determination by BCA kit. […] The mixtures were then subjected to HA or FLAG (Sigma-Aldrich, F7425) immunoprecipitation, followed by western analysis using 1:1000 dilutions of HA, FLAG, biotin, and BID (Santa Cruz sc-11423) antibodies. […] Cells were harvested and lysed as above, and incubated overnight with anti-HA agarose beads (Pierce). The beads were washed 3 times with lysis buffer, eluted by boiling in LDS buffer, and subjected to western analysis with HA and biotin antibodies.

BFL-1ΔC (aa 1-153) [2] = target: T3, BFL-1ΔC (aa 1-153) (human, UniProt Q16548 1-153); assay: covalent conjugation assay, gel shift
T3 construct: Recombinant, expressed in E. coli; the recombinant construct's species is not restated; also called wild-type BFL-1ΔC; BFL-1 WT; not shown: N-terminal His tag and vector-derived linker of pET19b
T3 sequence: T1 sequence (looked up) with S4C, S19C

[3] = target: T4, native BFL-1 (A375P melanoma cells) (human, UniProt Q16548 1-175); assay: A375P lysates with biotinylated peptides, streptavidin pull-down, BFL-1 western analysis; also biotinylation of purified mitochondria
T4 construct: also called native mitochondrial BFL-1
T4 sequence: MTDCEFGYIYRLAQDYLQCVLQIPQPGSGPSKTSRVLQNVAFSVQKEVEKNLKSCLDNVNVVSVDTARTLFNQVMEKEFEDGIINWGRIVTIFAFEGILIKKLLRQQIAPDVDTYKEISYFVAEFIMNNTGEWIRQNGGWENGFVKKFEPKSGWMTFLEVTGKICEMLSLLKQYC

[4] = target: T5, Bfl-1 (recombinant protein of Examples 1-4) (UniProt Q16548 1-153, limits assumed); assay: fluorescence polarization: FITC-labelled SAHB, anti-apoptotic protein serially diluted from 1 µM
T5 construct: also called 9xHis-tagged Bfl-1
T5 sequence (looked up): T1 sequence (looked up) with S4C, S19C
Description: (§1) The solution-state equilibrium binding assay was used to determine binding affinities of the stapled peptides to the anti-apoptotic proteins. Proteins were serially diluted from 1 μM, then combined with FITC-labeled SAHB and polarization measured at 5 min on a microplate reader. We then calculated dissociation constants (KD) by nonlinear regression analysis of dose-response curves.

[5] = target: T6, MCL-1 (recombinant protein of Examples 1-4) (UniProt Q07820 170-327, limits assumed); assay: as above
T6 construct: also called MCL-I
T6 sequence (Q07820 170-327 limits assumed): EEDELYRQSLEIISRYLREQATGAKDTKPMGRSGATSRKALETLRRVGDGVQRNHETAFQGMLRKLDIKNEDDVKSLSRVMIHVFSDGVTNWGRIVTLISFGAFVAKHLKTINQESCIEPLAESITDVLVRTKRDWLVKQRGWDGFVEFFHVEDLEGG
Description: as §1

BFL-1ΔC C4S/C19S [6] = target: T1, BFL-1ΔC C4S/C19S; assay: biolayer interferometry (Octet RED384): biotin-PEG-NOXA SAHB on super streptavidin tips, BFL-1ΔC construct in solution
Description: (§2) Excess streptavidin was quenched by incubation with 2 μg/mL biocytin. The tips were then washed with kinetics buffer and soaked in a serial dilution of BFL-1ΔC for 10 min to measure association rate, followed by a 15 min incubation in kinetics buffer to measure dissociation rate. Dissociation constants were calculated using Octet Data Analysis version 9.0.

BFL-1ΔC (aa 1-153) [7] = target: T3, BFL-1ΔC (aa 1-153); assay: as above
Description: as §2

BFL-1 C4S/C19S/C55S = target: T7, BFL-1 C4S/C19S/C55S; assay: as above
T7 construct: member of m33; m12 without cysteines; also called BFL-1ΔC C4S/C19S/C55S
T7 chain: T1 sequence (looked up) with C55S
Description: as §2

binding result (BFL-1ΔC C4S/C19S [1]): binds
B3: NOXA SAHBA bearing warhead 5 (peptide)
peptide: Acryloyl-PEVESATQLR[S5]FGD[S5]LNFRQKLL
modifications: staple 11-15; also: X1 proline L or D not settled
notes: Member of the NOXA SAHBA warhead panel 1-8

binding result (BFL-1ΔC C4S/C19S [1]): binds
B5: NOXA SAHBA bearing warhead 1 (peptide)
peptide: Acryloyl-[(3S)‑pyrrolidine‑3‑carboxylic acid]EVESATQLR[S5]FGD[S5]LNFRQKLL
modifications: staple 11-15
notes: as for B3

Kd (BFL-1ΔC C4S/C19S [6]): 47.2 nM
Kd (BFL-1ΔC (aa 1-153) [7]): 46.6 nM
Kd (BFL-1 C4S/C19S/C55S): 58.2 nM
B7: NOXA SAHBA C25S (peptide)
peptide: AELEVESATQLR[S5]FGD[S5]LNFRQKLL
modifications: staple 13-17; also: N-terminal PEG-biotin or FITC depending on assay
notes: Stapled NOXA BH3 with C25S; also called NOXA C25S SAHB; C25S mutant peptide

The next lines start with the binder.

B1: BIM SAHBA bearing warhead 8 (peptide)
peptide: Acryloyl-IAQELR[S5]IGD[S5]FNAYYARR
modifications: staple 7-11
notes: Member of the BIM SAHBA warhead panel 1-8
binding result (BFL-1ΔC C4S/C19S [1]): binds

B2: BIM SAHBA-3 (peptide)
peptide: [Nip(3R)](Acryloyl)IAQELR[S5]IGD[S5]FNAYYARR
modifications: staple 8-12
notes: Warhead-bearing BIM SAHBA (aa 147-166); also called BIM SAHBA-WH with warhead 3; biotinylated BIM SAHBA-3
binding result (HA-BFL-1ΔC C4S/C19S): binds
binding result (BFL-1ΔC (aa 1-153) [2]): binds
binding result [3]: binds
binding result (BFL-1ΔC C4S/C19S [1]): binds

B4: BIM SAHBA bearing warhead 1 (peptide)
peptide: [(3S)‑1‑acryloylpyrrolidine‑3‑carboxylic acid]IAQELR[S5]IGD[S5]FNAYYARR
modifications: staple 8-12
notes: as for B1
binding result (BFL-1ΔC C4S/C19S [1]): binds

B6: NOXA SAHBA (peptide)
peptide: AELEVECATQLR[S5]FGD[S5]LNFRQKLL
modifications: staple 13-17; also: N-terminal PEG-biotin or FITC depending on assay
notes: Stapled NOXA BH3 (aa 19-43) with native C25; also called WT NOXA SAHB; wild-type NOXA SAHBA
EC50 (read off the curve) [4]: ~100 nM
EC50 (read off the curve) [5]: ~200 nM
Kd (BFL-1ΔC C4S/C19S [6]): 165 nM
Kd (BFL-1ΔC (aa 1-153) [7]): 122 nM
Kd (BFL-1 C4S/C19S/C55S): 118 nM

Binder: AELEVECATQLR[S5]YGD[S5]LNFRQKLL (staple 13-17; also: FITC-labelled for FP assay) [NOXA SAHBA F32Y]
EC50 (read off the curve) [4]: ~200 nM
binding result [5]: no binding (tested: 1e-6 M)
